# Experimental data from US11697680B2, “Anti-GP73 antibodies and immunoconjugates” (CUREAB GMBH, priority 2016, dated 2023).
# Entries after “also recorded” stand apart in the source; their conditions may differ.
# B1: G2-2: scFv clone with human IgG1 heavy and human Igk light constant regions; VH/VL SEQ ID NO: 2 and 3; binds rGP73 AA 36-55 (antibody, V domains shown)
# VH: EVQLLQSGGGVVQPGRSLRLSCAASGFTFSSYGMSWVRQAPGKGLEWVAVISYDGSNKYYADSVKGRFTISRDNSKNTLYLQMNSLRAEDTAVYYCAREGSAGMDVWGQGTTVTVSS
# VL: DIQMTQPSSLSASPGASASLTCTLRSDISVGFHRIYWYQQKPGSPPQYLLRYKSDSDKQQGSGVPSRFSGSKDASANAGILLISGLQSDDEADYYCVIWHTSGVVFGGGTKVEIK
# modifications: human IgG1 and Igk constant regions not cited; G2-2 heavy chain variable region (VH); G2-2 light chain variable region (VL)
# Tests used:
# HuH7 cells = experiment: Internalization of pHrodo Green labeled antibodies after pre-incubation with conditioned media containing soluble GP73; assay type: cell-based, human; conditions: 10 ug/ml pHrodo Green labeled antibody pre-incubated over night, 24 h at 37° C.
# Procedure: Antibody internalization was measured by FACS using the pH-sensitive dye pHrodo Green coupled to each antibody. […] The internalization of G2-2 that binds to rGP73 is not altered as described in Example 6.
# Labeled antibodies were purified by size exclusion (40K MWCO). A non binding Isotype Antibody that was not labeled with pHrodo® Green STP Ester (Iso.) was used as control for background fluorescence. 10 ug/ml of each antibody was pre-incubated over night at 4° C. with either fresh culture media or conditioned media. As conditioned media served either supernatant from HEK 293 or HEK 293 GP73-myc cells cultured for 72 hours, that was dialyzed (10 k MWCO) against 1 L fresh media each. To confirm the presence of secreted soluble GP73 after dialysis supernatants were analysed by Western Blot using an anti-myc antibody. 300 ul/well of each pre-incubated antibody was given to 0.6×10^6HuH7 cells growing in 24 well plates for 24 h at 37° C. and 5% CO2. Cells were washed and analysed by FACS.
# peptide AA 36-55 of GP73 = peptide AA 36-55 of GP73 (Homo sapiens, UniProt Q8NBJ4); experiment: pH dependent peptide ELISA; assay type: binding; conditions: pH range of 7.4 to 5.4
# Procedure: A peptide ELISA was performed to test for pH dependency of binding to peptide AA 36-55 of GP73.
# ELISA was carried out in 96 well plates coated overnight with biotinylated peptide and blocked with 2% gelatine. Horse radish peroxidase labeled antibodies G2-1 (G2-1-HRP) or G2-2 (G2-2-HRP) were applied and incubated for 1.5 hours. For competition testing non labeled G2-1 or G2-2 was added at high concentration. For pH dependent binding the antibodies were applied in phosphate buffer pH 4.4, 5.4, 6.4 or 7.4. After extensive washing a chromogenic substrate (TMB Amersham) was added to detect peroxidase. The reaction was stopped and absorbance was read at 450 nm.
# [1] = target: T1, Furin cleavage of recombinant GP73-HIS (Homo sapiens, UniProt Q8NBJ4); experiment: Furin cleavage of GP73-HIS depending on antibody binding (capture ELISA); assay type: biochemical; conditions: 3 U and 1.5 U of Furin; 2 hours at 30° C.
# T1 construct: purchased Biolegend
# T1 sequence (Q8NBJ4 36-401 limits assumed): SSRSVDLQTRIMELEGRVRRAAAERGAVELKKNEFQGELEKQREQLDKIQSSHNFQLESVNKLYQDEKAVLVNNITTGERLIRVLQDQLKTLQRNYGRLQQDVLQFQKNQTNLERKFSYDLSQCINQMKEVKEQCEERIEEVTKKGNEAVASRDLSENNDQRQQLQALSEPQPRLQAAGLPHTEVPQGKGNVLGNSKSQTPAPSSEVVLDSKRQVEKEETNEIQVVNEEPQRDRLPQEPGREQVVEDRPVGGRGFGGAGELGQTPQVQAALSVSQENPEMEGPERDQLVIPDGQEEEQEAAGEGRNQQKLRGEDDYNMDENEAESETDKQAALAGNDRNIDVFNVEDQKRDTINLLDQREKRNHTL
# Text: Measurements of Furin cleavage of GP73 using a range from 0 units to 3 units of Furin are depicted.
# Testing of Furin cleavage exploits the fact that antibodies G2-1 and G2-2 bind GP73 N-terminal of or at the furin cleavage site 56R whereas recombinant GP73 with C-terminal HIS tag (GP73-HIS) is detected by anti HIS antibody at the C-terminus of GP73. Plate bound anti human IgG can capture G2-1 or G2-2, which binds GP73-HIS. If furin cleavage occurs in a setting where G2-1 or G2-2 have already bound to GP73-HIS, only N-terminal part of GP73 will reside at the G2 antibodies. In contrast, if furin cleavage is hindered by G2 antibodies, GP73-HIS can be detected by an anti HIS antibody.
# Furin cleavage was carried out in 1.5 ml tubes. To test if G2 antibodies can hinder furin cleavage recombinant GOLPH-HIS protein (Biolegend) and G2-2 or G2-1 was incubated for 2 hours in 100 mM HEPES and 1 mM CaCl2 buffer pH 7.5 to allow antibody binding to GP73. […]
# From each reaction 2×100 ul were transferred to wells of a 96 well plate that had been coated over night with anti human IgG and was blocked with 1% gelatine in PBS. After one hour incubation at room temperature the plate was washed, incubated with anti HIS-hrp antibody for one hour, washed again, incubated with a chromogenic substrate (TMB Amersham) to detect peroxidase, stopped and read at 450 nm.
molecule,measurement,setting,value
B1,effect of conditioned media containing soluble GP73 on antibody internalization / cell surface binding,HuH7 cells,unaffected; also recorded: not altered
same,pH dependency of binding to peptide AA 36-55 of GP73,peptide AA 36-55 of GP73,Stable binding
same,Furin cleavage of GP73 after preincubation with antibody,[1],significant reduction in Furin cleavage
